Results published in PMC6759196.

Molecular target: Smlt3024 (Stenotrophomonas maltophilia K279a) (UniProt B2FJJ5)
Assay: SEC-MALS; Superdex 200 10/300 GL coupled to a Wyatt MALS detector; isolated proteins and their mixture analysed, peaks checked by SDS-PAGE; dn/dc = 0.185 mL/g

Q: For Smlt3025_(86-333) (domain or fragment), which stoichiometry N (Smlt3024:Smlt3025 (86-333) ratio) is on record?
A: The stoichiometry N (Smlt3024:Smlt3025 (86-333) ratio) was 1.
